Measurements taken from paper PMC8643700.

Molecular target: Cas9wt (SpCas9) (Streptococcus pyogenes, UniProt Q99ZW2 1-1368)
Experiment: single-molecule magnetic tweezers

Chain of Cas9wt (SpCas9) (Q99ZW2 whole entry): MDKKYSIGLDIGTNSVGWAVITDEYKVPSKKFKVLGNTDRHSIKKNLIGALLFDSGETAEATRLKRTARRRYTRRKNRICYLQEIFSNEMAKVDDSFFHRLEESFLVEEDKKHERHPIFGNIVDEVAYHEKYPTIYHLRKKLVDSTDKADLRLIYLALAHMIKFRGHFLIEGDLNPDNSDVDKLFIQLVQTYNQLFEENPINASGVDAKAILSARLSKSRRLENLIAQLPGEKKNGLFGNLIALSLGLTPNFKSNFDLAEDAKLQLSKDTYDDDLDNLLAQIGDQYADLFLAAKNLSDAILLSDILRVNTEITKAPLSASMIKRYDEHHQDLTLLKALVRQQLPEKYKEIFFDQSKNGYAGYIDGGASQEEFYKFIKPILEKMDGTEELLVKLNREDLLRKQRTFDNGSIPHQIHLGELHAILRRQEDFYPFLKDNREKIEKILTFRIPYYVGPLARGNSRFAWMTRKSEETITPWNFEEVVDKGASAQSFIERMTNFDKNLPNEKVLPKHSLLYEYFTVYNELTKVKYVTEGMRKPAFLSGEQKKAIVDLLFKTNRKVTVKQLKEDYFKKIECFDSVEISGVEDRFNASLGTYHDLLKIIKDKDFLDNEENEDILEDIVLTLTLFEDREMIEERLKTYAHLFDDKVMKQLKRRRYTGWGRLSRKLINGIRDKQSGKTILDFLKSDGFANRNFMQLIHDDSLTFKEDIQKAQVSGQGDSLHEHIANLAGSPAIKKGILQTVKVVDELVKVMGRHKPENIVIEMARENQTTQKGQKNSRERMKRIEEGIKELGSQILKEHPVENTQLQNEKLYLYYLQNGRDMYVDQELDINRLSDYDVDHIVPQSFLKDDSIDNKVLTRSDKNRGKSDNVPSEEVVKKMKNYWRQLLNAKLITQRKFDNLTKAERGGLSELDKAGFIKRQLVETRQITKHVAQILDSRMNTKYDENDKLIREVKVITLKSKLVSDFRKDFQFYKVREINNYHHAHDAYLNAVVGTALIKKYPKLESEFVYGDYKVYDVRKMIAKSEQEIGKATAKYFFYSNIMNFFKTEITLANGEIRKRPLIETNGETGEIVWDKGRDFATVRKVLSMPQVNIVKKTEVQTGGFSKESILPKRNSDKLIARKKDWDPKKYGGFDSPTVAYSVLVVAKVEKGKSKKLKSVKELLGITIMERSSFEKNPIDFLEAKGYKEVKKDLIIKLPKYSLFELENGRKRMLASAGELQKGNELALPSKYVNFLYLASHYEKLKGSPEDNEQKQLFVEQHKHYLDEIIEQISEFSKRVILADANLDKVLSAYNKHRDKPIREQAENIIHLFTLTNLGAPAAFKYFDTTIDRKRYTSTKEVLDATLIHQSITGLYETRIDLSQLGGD

B1: sgRNA MT + 2.7 kb DNA with FM protospacer (mixed)
RNA: GAGCGAUACACAUGAGACGCGUUUUAGAGCUAGAAAUAGCAAGUUAAAAUAAGGCUAGUCCGUUAUCAACUUGAAAAAGUGGCACCGAGUCGGUGCUUUUU
B1: binds.
